Experimental data published in EP4674868A1 (Jiangsu Hengrui Pharmaceuticals Co., Ltd., dated 2026).
Positions count from the first letter of the chain named. Names may count otherwise. Read-outs that look alike come from different tables or passages of the source. Each block holds one binder with its values, some of them ahead of it.

Assays:
[1] = biological target: T1, human 4-1BB on the surface of HEK293 cells (HEK293-Hu4-1BB) (human, UniProt Q07011 24-255); assay: cell-based or functional assay
[2] = biological target: T1, human 4-1BB on the surface of HEK293 …; assay: cell-based or functional assay; remark: listed apart in the source
[3] = biological target: T1, human 4-1BB on the surface of HEK293 …; assay: FACS, HEK293-Hu4-1BB cells
[4] = biological target: T1, human 4-1BB on the surface of HEK293 …; assay: FACS, HEK293-Hu4-1BB cells; remark: listed apart in the source
[5] = biological target: T1, human 4-1BB on the surface of HEK293 …; assay: FACS, HEK293-Hu4-1BB cells; remark: listed apart in the source
[6] = biological target: T1, human 4-1BB on the surface of HEK293 …; assay: cell-based or functional assay; remark: listed apart in the source
[7] = biological target: T1, human 4-1BB on the surface of HEK293 …; assay: cell-based or functional assay; remark: listed apart in the source
[8] = biological target: T2, human CD40 on the surface of HEK293 cells (HEK293-HuCD40) (human, UniProt P25942 21-277); assay: cell-based or functional assay
[9] = biological target: T2, human CD40 on the surface of HEK293 …; assay: cell-based or functional assay; remark: listed apart in the source
[10] = biological target: T2, human CD40 on the surface of HEK293 …; assay: cell-based or functional assay; remark: listed apart in the source
[11] = biological target: T3, human FAP on the surface of CHO-K1 cells (CHO-K1-HuFAP) (human, UniProt Q12884 1-760); assay: FACS, CHO-K1-HuFAP cells
T3 construct: whole, on cells; also called CHO cell line overexpressing human FAP; FAP on the surface of CHO-K1-HuFAP cells

[12] = biological target: T3, human FAP on the surface of CHO-K1 …; assay: FACS, CHO-K1-HuFAP cells; remark: listed apart in the source
[13] = biological target: T2, human CD40 on the surface of HEK293 …; assay: FACS, HEK293-HuCD40 cells
[14] = biological target: T2, human CD40 on the surface of HEK293 …; assay: FACS, HEK293-HuCD40 cells; remark: listed apart in the source
[15] = biological target: T1, human 4-1BB on the surface of HEK293 …; assay: FACS, HEK293-Hu4-1BB cells; remark: listed apart in the source
[16] = biological target: T1, human 4-1BB on the surface of HEK293 …; assay: FACS, HEK293-Hu4-1BB cells; remark: listed apart in the source

4-1BB/NF-κB luciferase reporter, FcγRIIb crosslinking, EC50 [1]: 0.027 nM
4-1BB/NF-κB luciferase reporter, no FcγRIIb crosslinking, EC50 [1]: 2.19 nM
Activation of HEK293-4-1BB cells (NF-κB reporter), Fold change in Emax [2]: 1.7 fold
FcγRIIb-mediated activation of HEK293-4-1BB cells (NF-κB reporter), Fold change in Emax [2]: 2.61 fold
EC50 [3]: 1.18 nM
Maximum fluorescence value [3]: 1000
EC50 [4]: 1.64 nM
EC50 [5]: 1.64 nM
Maximum fluorescence value [5]: 39700
B1: Urelumab (positive control anti-4-1BB antibody) (antibody, V domains shown)
VH: QVQLQQWGAGLLKPSETLSLTCAVYGGSFSGYYWSWIRQSPEKGLEWIGEINHGGYVTYNPSLESRVTISVDTSKNQFSLKLSSVTAADTAVYYCARDYGPGNYDWYFDLWGRGTLVTVSS
VL: EIVLTQSPATLSLSPGERATLSCRASQSVSSYLAWYQQKPGQAPRLLIYDASNRATGIPARFSGSGSGTDFTLTISSLEPEDFAVYYCQQRSNWPPALTFGGGTKVEIK

4-1BB/NF-κB luciferase reporter, CD40-crosslinked, Fold change in Emax [6]: 1.1 fold
4-1BB/NF-κB luciferase reporter, FAP-crosslinked, Fold change in Emax [6]: 1.05 fold
4-1BB/NF-κB luciferase reporter, uncrosslinked, Fold change in Emax [6]: 1.06 fold
4-1BB/NF-κB luciferase reporter, CD40-crosslinked, Fold change in Emax [7]: 1.07 fold
4-1BB/NF-κB luciferase reporter, FAP-crosslinked, Fold change in Emax [7]: 1.01 fold
4-1BB/NF-κB luciferase reporter, uncrosslinked, Fold change in Emax [7]: 1.1 fold
CD40/NF-κB reporter (HEK-Blue CD40L), 4-1BB-crosslinked, Fold change in Emax [8]: 8.42 fold
CD40/NF-κB reporter (HEK-Blue CD40L), FAP-crosslinked, EC50 [8]: 0.025 nM
CD40/NF-κB reporter (HEK-Blue CD40L), FAP-crosslinked, Fold change in Emax [8]: 11.9 fold
CD40/NF-κB reporter (HEK-Blue CD40L), uncrosslinked, Fold change in Emax [8]: 7.05 fold
CD40/NF-κB reporter (HEK-Blue CD40L), 4-1BB-crosslinked, Fold change in Emax [9]: 5 fold
CD40/NF-κB reporter (HEK-Blue CD40L), FAP-crosslinked, EC50 [9]: 0.23 nM
CD40/NF-κB reporter (HEK-Blue CD40L), FAP-crosslinked, Fold change in Emax [9]: 6.47 fold
CD40/NF-κB reporter (HEK-Blue CD40L), uncrosslinked, Fold change in Emax [9]: 4.57 fold
CD40/NF-κB reporter (HEK-Blue CD40L), 4-1BB-crosslinked, Fold change in Emax [10]: 4.27 fold
CD40/NF-κB reporter (HEK-Blue CD40L), FAP-crosslinked, EC50 [10]: 0.35 nM
CD40/NF-κB reporter (HEK-Blue CD40L), FAP-crosslinked, Fold change in Emax [10]: 11.3 fold
CD40/NF-κB reporter (HEK-Blue CD40L), uncrosslinked, Fold change in Emax [10]: 3.73 fold
EC50 [11]: 1.72 nM
Maximum fluorescence value [11]: 77200
EC50 [12]: 2.73 nM
Maximum fluorescence value [12]: 82700
EC50 [13]: 4.77 nM
Maximum fluorescence value [13]: 54000
EC50 [14]: 6.85 nM
Maximum fluorescence value [14]: 55200
Maximum fluorescence value [15]: 73
Maximum fluorescence value [16]: 70
B2: Ab10-A12V2-2 (FAP/CD40 bispecific antibody molecule, control) (bispecific antibody, human IgG1, kappa, L234A L235A)
heavy: not shown
light: DIQMTQSPSSVSASVGDRVTITCRASQGISSWLAWYQQKPGKAPKLLIYAASSLQSGVPSRFSGSGSGTDFTLTISSLQPEDFATYYCQQANSFPPAFGQGTKVEIKRTVAAPSVFIFPPSDEQLKSGTASVVCLLNNFYPREAKVQWKVDNALQSGNSQESVTEQDSKDSTYSLSSTLTLSKADYEKHKVYACEVTHQGLSSPVTKSFNRGEC

Activation of HEK293-4-1BB cells (NF-κB reporter), Fold change in Emax [2]: 1.37 fold
FcγRIIb-mediated activation of HEK293-4-1BB cells (NF-κB reporter), Fold change in Emax [2]: 2.02 fold
EC50 [3]: 1.62 nM
Maximum fluorescence value [3]: 1030
EC50 [4]: 0.98 nM
EC50 [5]: 0.98 nM
Maximum fluorescence value [5]: 53700
B3: humanized anti-4-1BB nanobody C5_V2 linked to human IgG1-Fc (Fc fusion)
chain: QVQLVESGGGLVQPGGSLRLSCSASGFTFSSYAMSWVRQAPGKGLEWVSDINSGGESTFYEDSVKGRFTISRDNAKNTLYLQMNSLRAEDTAVYYCAKHPLTFTIATMNDYDYWGQGTLVTVSSEPKSADKTHTCPPCPAPELLGGPSVFLFPPKPKDTLMISRTPEVTCVVVDVEHEDPEVKFNWYVDGVEVHNAKTKPREEQYNSTYRVVSVLTVLHQDWLNGKEYKCKVSSKAFPAPIEKTISKAKGQPREPQVYTLPPSRDELTKNQVSLTCLVKGFYPSDIAVEWESNGQPENNYKTTPPVLDSDGSFFLYSKLTVDKSRWQQGNVFSCSVMHEALHNHYTQKSLSLSPGK

EC50 [4]: 0.62 nM
EC50 [5]: 0.62 nM
Maximum fluorescence value [5]: 53800
B4: C5_V2-YTI (TCE-optimized C5_V2, F99Y Kabat) linked to human IgG1-Fc (Fc fusion)
chain: B3 chain with F103Y
